Data as given in the DeepSol protein solubility set.

experiment: soluble on expression in E. coli; label from the status in PepcDB or PDB records

Row | Sequence | soluble on expression in E. coli
1 | MGSDKIHHHHHHMAADHVHCASCGQPLTGSYYVLINRPERFCPQCIATRPRCSTCGAPLGNHFWKLHDGRQQCDACHAVAIYDPVQAQHLFQQTAGMLAEGMGLRLHVGVAFRLVDAPTMARLRGPTPPGQDTLGLYRRQNHVRVIYLLYGLPTLIFRITAAHEYAHAWQAEHCPLLRNEFLREGHAEWVAYQHLLQLGSHKAAARMLDENHPYHEPLRYLLQLEAQLGIEGVNRYMMRVDIE | not soluble
2 | MDMSKASQEQFSMFMNLLCITVKDMPITEYYTSYILWEEVEFLEGVKDLLDPTSAFEDRRSSLYHHLGHNFASNCSLKDDNNVRDAHVVVEDHTKFDNYMYDQMTRKEWTSLHL | soluble
3 | FERGHEFSFAQAVRLLRLLAAAQGREGACPCGVRVRPELSLSFPVADVARIERQSDGYRITARFLGLYGPSSPLPTFYTEELIDEEREDGSASRDFLDVLSHRIFDLWVAGDAKYRLFNRVVEDGSGDDLERLFCLAGLDLAQGQTVLPESGRWLRYVGLLGQVPRSALGLRTMVADALGVPVEVIPCQHRQVSIPPGQRLAVGIAASSLGIDTVVGTNLDDRLGMFRLCLGPLSREQFADLLPGAPGRSTLDLIVELYLDAPLAWDVELTLAPGETPEARLGACRGARVGWDTWLGV | not soluble
4 | MGSDKIHHHHHHMNIAILNHYASIPEVGSAETRHFELAKRFVREGHRVDIYIGDFSHLTGKRWSETFGWSFSKDGVDFIVVETREYTGNSLSRLLSSIDYYRNGRKKIIQKRYDVIIASSPHPFSWSLGWYYVRRKGGKFFIEIRDVWPDDLVKLGSLSYRHPVSKLFDHMCKKYYPKADGFISLVPDLSEHFNRLKVRPENFIYIPNGVDLKVFKDPEPCPVVDEVFSKVPDGKIKVVYAGSIVEHKGIKEFIETLSKVNKNLRDRFVFFFVGPSHADYLVSVKETAKDLQNVFFFDPVPKRCVPYLLQKADVLLFTLSQTVMDHPAVSSYKVVDYMASGKPVLCVDIENLPFKKTKGAVFFREDNLEEALRRIFEEDLSELGRRNREYVERERDWDRLYEKLRSFVLS | not soluble
5 | GNNFNWTSVLNMTHNKNKIVSLDGKLDQSIEGSWFIHKVGLPYSTFYVKEYAGVDPQTGKALYYMNTQDANGNYDRTVTTDASAAQAIPYKSVDPKISGGFTNIVNYKWFDLALTLTYSLGGYSFDKTGTYNETDGAKEQNYNLPIYELDRWQKPGDVTDVPRFVLGQAAGPQNSSRYVHSTDHLRVKNLTLGFTLPDQWLTKLGVSKARLYFSGSNLLTWAKWDQYDPEVPVSGEVFCETPPMRTYSFGIEVSF | not soluble
6 | MPRLVVNSIYASGAQYQGSSSKLYVNVSNLGTENAYNVLIQVYVNGKVYGSTTVSEIKAGASDNVSINWVPPTSGKVSVYATASVNSEPRSFVTAGALTQTVSVNPLEHHHHHH | not soluble
7 | MTEYNNNFDRELGWDDEITQDSVGFVQLVPGDYQFTVTNMERARHTPNPKSPGKLPACNKAVVTIQIETSEGIAQLTHNLFLHTTTEGMLSAFFGAIGQKKHGEPLKMNWNTVIGAKGVARINKRKGTGDYADREYDNIKSMIYADEVDWTKVLNKDVAQPQQMTHQQSAQPTYQGQQAQGTNFAQQPATQSYQQGQMQTPQQPQGGWGGF | not soluble
8 | MGSDKIHHHHHHMSNPLLKQICELDVFTLLVFKSIFDNGHANSAAKALNVSAPKISRCLNALRLTFNDELFYRRQQGLKPTPLAESLYVAICQFTDAVHHLEQSALQLQHSASHVELPLHIAASNGLLSFLAPQLSSPEVISELGQIRLHKWQDNSAELIHAGELDLGITQEPVETKELTITHLGSIASVYIVASKHHPLWESQFDITLEQICRHSFLCLEMKGFNARIDPLELFCQRQGLLLPSIERVIDREEWYAHLLTMQSVAFCSSIDMHTVKHMPGLKLVPLSVSELHRLHETIMPPQYFLIEKPRSHRRYNQTQCELVVRSWLTVLSSNSRVSQ | not soluble
9 | MWVEKKKDKKGNITYQYRERYTDPRTGKTQKVTTTLAKNTKQAENAARRELEIKIQKILTDYEEEKRLENLIKNEGVIPNDKTLEDMIKEWFDYIQDPKSKERKKGSTLSGYSYGIDSLLNEFLVIEKDKRIQDLTFDDIQAFYDRMIFDFEYQKSYIKRFRAIIRGAFTLAYKKRYIKNLDAINLSKIVTPAKTVDDLINEQVPRYLEKAEAEQIFQVLNGYNPLYTQILELQFHTGMRFGELIALESKNFHDGFLLDIHGTYDHATRSHTRGQKVPPKTRKSFRTIELGDAAVQIIKDRMYHNHFIKNKNSDFLFVTSNDRPYDLGTINSFIASHQIEFNTSTKVSTHVFRHTHISMLAEKSIPIQVIMDRVGHEDRETTEKIYMHVTKKQKTDLVKTLNEL | not soluble
10 | MAHHHHHHMASLTVPAHVPSAAEDCEQLRSAFKGWGTNEKLIISILAHRTAAQRKLIRQTYAETFGEDLLKELDRELTHDFEKLVLVWTLDPSERDAHLAKEATKRWTKSNFVLVELACTRSPKELVLAREAYHARYKKSLEEDVAYHTTGDHRKLLVPLVSSYRYGGEEVDLRLAKAESKILHEKISDKAYSDDEVIRILATRSKAQLNATLNHYKDEHGEDILKQLEDGDEFVALLRATIKGLVYPEHYFVEVLRDAINRRGTEEDHLTRVIATRAEVDLKIIADEYQKRDSIPLGRAIAKDTRGDYESMLLALLGQEED | soluble
11 | MGSDKIHHHHHHSCGTNGSKTTSTDITEKKVIVQVPQFDADSAYKYIQAQVDFGPRTPNSKGHVACGDYLAAKLAEHGAKVISQNAELPAYDGTLLKARNIIGSFKPESKKRIALFAHWDTRPWADNDPNEKNHHTPILGANDGASGVGVLLEIARQINQQQPELGIDIIFLDAEDYGAPQFYTGEHREDQWCLGAQYWARTPHVDGYNARFGILLDMVGGKDATFFKEVYSEKYAKGINKKVWKKANDAGYGRYFINEVGGQITDDHLFINRLAGIPTIDIIPNDENCELSSFGPTWHTVNDNMDAIDRSTLKAVGQTVLEVIYNEK | not soluble
12 | MKKMGGKIFAVRVTQGQEENTARLIYSKVKTYNLPIYAILAPSKVKGYIFIEAPEKSVVDEAIRGIRHARGVLPGEIPFSEIEHFLEEKPAVSGLEPGDIVELISGPFKGEKAKVVRVDESKDEIVVELIGAIVPIPVTVRGEYVRLISKRQKEE | soluble
13 | MGSDKIHHHHHHMKRRPTINDVAKLAGVSISTVSRYLKDPSQVSEKLGERIREAIKKLGYKPNKIAQGLRTGDSKMIGFIVPDITNPAFLTIVKGAEDFLRKKGYSFIIGGTDHKSKDEVVILESFIFHNVDGVIVTCTGYENKALKELIERYHLKLVFVDRRYPGIDAPYIGVDNFGGVARMVDYLVETGHRSFAYLCGDMTSTAKERLEGFLDRMKKYKIKDYQVLYGEFTFESGYKLTKRLSKIPDAIIAGNDLMAFGVIEALKERGLVVPEDVSVTGFDDMFFSKYYKPSLTTVRQDLYEMGKQAGKVLFALISGKKIRKKEYILPTEIVIRDSVKERRA | not soluble
14 | SATKELDLLADTAIAETEKPLDLGLDDSKTHAFLFTATWCDWYFKDSRPTASQQCISAQNSVNNLTKKFDKFAWQGIISRLWTGPSELANYTKKYQVKHPIAIDVSNSMFHQYGIKEFPSLVVVKNGEVILKTSDFSKPESLAKQLSKL | not soluble
15 | MAHHHHHHMFVRSFCFLRKYGSKSKTPDLKTSFTKTTNFRKAEKISITTTDGEIVKGRGKIRRRTHSALKEAIGAMEHPAIWLWYPWRMNPEPPTPHMPQRRALKNVHGAVFNDLTPVQKKRQEQMLYGVNIPETRQMKFEEQHPLLAGALRKLEGQPKGFPFWYRKYPTRRHAYEYRFSIPVEMLDGYNDDVKKALSKGMMSIQEKQFAQEAMYMERYAEHDFDTTSPAVLAVKRALKCRVLRNHLLTNPHNNIIKTVLANTERKLNHALRRLRKVDFKKYWEIIRDHDVQDILQPPNLVTYRQGSYWKYDWNAGLAISTNLADVMDPRGLNGCVETGRSRSEVARDLGLSYTRPLHENEKKQLSHQAVYYERLAKFKMEQPEAARAMERERFVRKFSGMFVKMDIRSGAPDFPSTYRRLLGTKVVRWASKRHGPN | not soluble
16 | MGSDKIHHHHHHMSHEVDPRVDKTRRRLRQALITLLQTETVDNISVQKLTSTAAVTRGTFYLHYKDKPAFVDQALDDLVSELFETAIVTVSVGDIMTNPADPLQRVHVFSLSKALSYISQHAEAFETLLLDQRQLAVNQRINQQMTTWMTKFHRDFQDQFADLEVPVSIQIAYYVSATVGLITDWLANDMIYTPHYLTKCIKKMHHLMTVGSISFTDFFVK | not soluble
17 | MEVEYDEGFDSSSLKNNPASLQRDYPTFMESNCSQMSVRQEFLPIFPQRLDLCQISPKKSEKKSKKKKIPSPIKKTNDTKLSILSEKSEIRSEKHKNKCKSADLDAMEKNFKELLENFSKNAALSNSLRDEASSIISSSASSQKSLFKEINLAKKLSASYSKKPEKTGEKSKNCTFSDSTFRLSSQNDSDSDDTRPPSSQASLAFEVEQARNMMMSSAKIPKPLSSSTPRKERRTTGTNSDSNKILANLKIFKPKCGNFDLFTRKVPENIRLSESQLVELYSNREPRNSKSDITIRQFFDEEDDADKTIVEQVFKDYHRSLEKETPIMRNSATDTSGSLHIERNRDGRSASMSNLISNSGNRTNLTVFDGFAPGALRHSISTVQMSPTKKKFDEFRIEHQEPGILPRFVIKTSLRPIFSPPLDIDEICGKGLRKDAESNLRHFGGKTISAQIHGSKPVQRRPTVPKASKTGSDRPTTASTAKIVEKPEIPVEIPQKLEISRKIAEKTLKLDDFPVKSSNFSNISNFQPRRPPYCSATSSDGSAHSLATVTQQLMGTVKLLHPDWLDMLRRLLNNALPRDDVTLLFKYQVLAEKDHLERKFRGNLSVEAEAADAHLEHFGRISTLNRVLDRLADLTNDGGHVSRIQQIKIIHNALFKD | not soluble
18 | GHMPPWTARQDSTTGLYAPVTPAGRVLLDRLAAHLPRIRSTAAEHDRDGTFPTDTFDALRKDGLMGATVPAELGGLGVDRLYDVAVALLAVARADASTALALHMQLSRGLTLGYEWRHGDERARTLAERILRGMVAGDAVVCSGIKDHHTAVTTLRPDGAGGWLLSGRKTLVSMAPVGTHFVINARTDGTDGPPRLASPVVTRDTPGFTVLDNWDGLGMRASGTVDIVFDDCPIPADHVLMRDPVGARNDAVLAGQTVSSVSVLGVYVGVAQAAYDTAVAALERRPEPPQAAALTLVAEIDSRLYALRATAGSALTAADALSADLSGDMDERGRQMMRHFQCAKLAVNRLAPEIVSDCLSLVGGASYTAGHPLARLLRDVQAGRFMQPYAYVDAVDFLSAQALGIERDNNYMSTWAKRSGGNGKSADAAGPRRPTPTSR | soluble
19 | MYQVIRMYGAMEPWWFLDDWKEDITKVLEFDNYHEALQCYQKEWAKLRRRYSDFNSHGDIMTAFWNKQDQHWCEECGDYVQRYHSLALLTDWQETPSSWFRPTFTKQLEHHHHHH | soluble
20 | MGSDKIHHHHHHMFVDTTLRDGHQSLIATRMRTEDMLPALEAFDRMNFHSMEVWGGATFDVAVRFLNENPWERLKKIREGLKNTKIQMLLRGQNLVGYRHYADDVVELFIKKVAEYGLDIIRIFDALNDERNLQKSIEESKKHGLHVQVAISYTVSPVHTLDYYLDFARKLLDMGVDSICIKDMAGLLTPKRAYELVRALKEKFGVPVEVHSHCTTGFAPLAYQAAYEAGADFFDTAISPFSMGTSQPTFETMYYAFRGNGKEDFDREALKFLVDHFTKVRMKYIEYDVGMKYPDSRIIFSQIPGGMYSNLLKQLKEQRMEHLLDKVLEEVPRVQKDLGYPPLVTPTSQIVGVQAFLNVVYGRYERITNETRNYVKGLYGRPPAPIDPELMRKILGDEKPIDCRPADLLEPELDKTRKELGILVETDEDLLIAVILGEVGKKFLRKKYEEKIGVDFNYLESLSDFTDDMPVYPV | not soluble
